Source: US7033766B2, “Construction and screening of lantibody display libraries” (University of Maryland Office of Technology …, priority 2000, dated 2006)

Tested on: anti-sublancin antibodies
Experiment: binding of anti-sublancin polyclonal antibodies to the displayed peptide (peroxidase colour reaction, magnetic beads)
Conditions: rabbit antibodies raised against sublancin-KLH conjugate
Method: The transformed host was cultured in Medium A to allow the Lantibody Display Peptide to be expressed. Expression was monitored by observing the appearance of the Display Peptide in the cytoplasm of the cell, the membrane, the cell wall and in the extracellular medium. The peptide was detected using polyclonal antibodies raised in rabbits against a sublancin-KLH conjugate as an antigen.
To explore this hypothesis, cells expressing the Lantibody Display Peptide as shown in FIG. 8 were centrifuged out of the culture medium and resuspended in buffer. The cell suspension was treated with anti-sublancin antibodies, and washed to remove any unbound antibody. To determine whether anti-sublancin antibodies were bound to the surface of the cells, goat anti-rabbit antibodies that were conjugated with horseradish peroxidase were added and allowed to adsorb to any antibodies on the surface of the cells. The cells were washed and the peroxidase color reagent was added.

B1: sublancin Display Peptide: mature sublancin segment (1–37), a 20-residue polyglycine spacer (38–57) and the subtilin leader segment (58–81) (protein)
chain: MEKLFKEVKLEELENQKGSGLGKAQCAALWLQCASGGTIGCGGGAVACQNYRQFCRGGGGGGGGGGGGGGGGGGGGMSKFDDFDLDVVKVSKQDSKITPQ
modifications: The peptide sequence of sunA-PG20-SL.
B1 was tested, and the “binding to polyclonal anti-sublancin antibody” value was “recognize and bind to a target substrate” and the “binding to polyclonal anti-sublancin antibody” value (listed as Sublancin Display Peptide) was “responsible for the binding to sublancin antibodies”.
